Test results published in publication PMC6494913 (Nature Communications, 2019).
Blank lines part the entries; values can stand above or below the molecule they belong to.

Key:
[1] = molecular target: NLuc-tagged GIRK (GIRK1/GIRK2-Luc) (human) (UniProt P48549); assay: FRET or BRET; agonist-induced BRET in living HEK293T cells between Venus-Gβγ (acceptor) and GRK-Luc or GIRK-Luc (donor); co-expressed GPCR (DOR or D2R), PTX S1 and a PTX-insensitive Gα (C351A); agonist 10 μM, then antagonist; PBS with 0.5 mM MgCl2 and 0.1% glucose; read 3 min after ligand
[2] = molecular target: KirBac1.3-GIRK1 chimeric protein (GIRK chimera) in MSP1E3 nanodiscs (mouse | Burkholderia xenovorans) (UniProt P63250); assay: NMR titration; 1H-13C HMQC (methyl-TROSY) of 11 μM Gα[ILVA]βγ with or without 22 μM (2 eq.) GIRK chimera-nanodiscs; 20 °C; 20 mM HEPES-NaOH pH 7.0, 150 mM KCl, 0.5 mM GDP, 0.1 mM TCEP; signal intensity reductions; apparent Kd estimated
[3] = molecular target: T1, Gβγ dimer (human Gβ1 and His6-tagged human Gγ2 (C68S)) (human, UniProt P62873 1-340; P59768 1-71, C68S); assay: SEC; purified Gα and Gβγ mixed with a slight excess of Gβγ; Gαβγ isolated by gel filtration on Superdex 200; conditions: both partners purified
T1 construct: G protein β1 subunit (Gβ1), human; G protein γ2 subunit (Gγ2), human; also called [non-labeled]βγ

NLuc-tagged GIRK (GIRK1/GIRK2-Luc) (human), sequence (P48549 whole entry, chain 1 of 2): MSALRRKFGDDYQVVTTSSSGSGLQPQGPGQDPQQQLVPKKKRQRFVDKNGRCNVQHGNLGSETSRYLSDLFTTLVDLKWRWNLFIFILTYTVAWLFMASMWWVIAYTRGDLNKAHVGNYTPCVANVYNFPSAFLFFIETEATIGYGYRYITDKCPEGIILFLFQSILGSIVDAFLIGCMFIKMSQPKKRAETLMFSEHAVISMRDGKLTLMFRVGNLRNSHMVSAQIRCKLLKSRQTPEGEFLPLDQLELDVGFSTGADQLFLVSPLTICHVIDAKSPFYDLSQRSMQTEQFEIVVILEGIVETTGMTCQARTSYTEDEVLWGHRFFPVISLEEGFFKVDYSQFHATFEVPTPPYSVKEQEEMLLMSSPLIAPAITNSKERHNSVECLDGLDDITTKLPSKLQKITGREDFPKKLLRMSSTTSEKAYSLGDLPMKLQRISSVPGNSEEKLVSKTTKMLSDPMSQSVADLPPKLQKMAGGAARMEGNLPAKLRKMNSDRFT
NLuc-tagged GIRK (GIRK1/GIRK2-Luc) (human), sequence (P48051 whole entry, chain 2 of 2, further chain): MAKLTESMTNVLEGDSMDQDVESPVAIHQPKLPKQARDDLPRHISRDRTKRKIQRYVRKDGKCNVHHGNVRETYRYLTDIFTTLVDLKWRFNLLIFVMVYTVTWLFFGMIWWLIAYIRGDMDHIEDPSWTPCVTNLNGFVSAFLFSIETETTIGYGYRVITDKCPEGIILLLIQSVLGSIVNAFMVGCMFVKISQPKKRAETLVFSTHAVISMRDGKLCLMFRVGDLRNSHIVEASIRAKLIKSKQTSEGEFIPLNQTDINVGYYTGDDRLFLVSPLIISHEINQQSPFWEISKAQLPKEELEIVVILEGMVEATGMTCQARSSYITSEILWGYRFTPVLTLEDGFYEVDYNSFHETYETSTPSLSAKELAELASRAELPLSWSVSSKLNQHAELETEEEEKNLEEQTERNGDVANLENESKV

- specificity factor (ΔBRET GIRK/ΔBRET GRK), with D2R and Gαi3 [1]: 0.303
- specificity factor (ΔBRET GIRK/ΔBRET GRK), with D2R and Gαiqi [1]: 0.157
- specificity factor (ΔBRET GIRK/ΔBRET GRK), with D2R and Gαqi5 [1]: 0.091
- specificity factor (ΔBRET GIRK/ΔBRET GRK), with D2R and Gαqiqi5 [1]: 0.236
- specificity factor (ΔBRET GIRK/ΔBRET GRK), with DOR and Gαi3 [1]: 0.286
- specificity factor (ΔBRET GIRK/ΔBRET GRK), with DOR and Gαiqi [1]: 0.148
- specificity factor (ΔBRET GIRK/ΔBRET GRK), with Gαi3-q(αA) [1]: 0.159
- specificity factor (ΔBRET GIRK/ΔBRET GRK), with Gαi3-q(αB) [1]: 0.248
- specificity factor (ΔBRET GIRK/ΔBRET GRK), with Gαi3-q(αE) [1]: 0.249
Molecule: Venus-tagged Gβγ (Venus 156–239-Gβ1 with Venus 1–155-Gγ2) (from UniProt P62873 1-340; P59768 1-71) (complex)

- Kd [2]: > 200 µM
Molecule: Gαi3βγ heterotrimer (Gαi3[ILVA] complexed with non-labeled Gβ1γ2(C68S)), GDP-bound (from UniProt P08754 1-354; P62873 1-340; P59768 1-71)

- binding result [3]: binds
B1: Gαiqi (chimeric Gα: GTPase domain of Gαi3, helical domain of Gαq), purified (other, human, UniProt P08754 1-62, looked up)
chain: MGCTLSAEDKAAVERSKMIDRNLREDGEKAAKEVKLLLLGAGESGKSTIVKQMKIIHEDGYSDEDKRGFTKLVYQNIFTAMQAMIRAMDTLKIPYKYEHNKAHAQLVREVDVEKVSAFENPYVDAIKSLWNDPGIQECYDRRREYQLSDSTKYYLNDLDRVADPAYLPTQQDVLRTRVKTTGIVETHFTFKDLYFKMFDVGGQRSERKKWIHCFEGVTAIIFCVALSDYDLVLAEDEEMNRMHESMKLFDSICNNKWFTETSIILFLNKKDLFEEKIKRSPLTICYPEYTGSNTYEEAAAYIQCQFEDLNRRKDTKEIYTHFTCATDTKNVQFVFDAVTDVIIKNNLKECGLY
notes: Gαi3, human, GTPase domain residues 1-62; Gαq, human, helical domain residues 69-180; Gαi3, human, GTPase domain residues 176-354; also called Gαiqi[ILVA]; source: E. coli BL21-CodonPlus (DE3)-RP, purified in the same way as the wild-type Gαi3; not shown: His10, N-terminal, cleaved
